Experimental data: patent US20150250848A1 (TRUSTEES OF DARTMOUTH COLLEGE, published 2015)
Values belong to the binder of their own block, whether it stands above or below them. Where no end group is shown, it is not given here. [ ]: non-standard residue; d: D form. The star is where a group is joined. Biotin = O=C1N[C@H]2[C@H](CS[C@H]2CCCCC(=O)*)N1; Ahx = NCCCCCC(=O)O

What was measured:
[1] = molecular target: T1, CAL PDZ domain (CALP) (UniProt Q9HD26 278-362); test: calculated from Ki values (FP); reference: the same peptide with TIP-1
[2] = molecular target: T1, CAL PDZ domain (CALP); test: calculated from Ki values (FP); reference: the same peptide with the NHERF PDZ domains
[3] = molecular target: T1, CAL PDZ domain (CALP); test: fluorescence polarization competition
[4] = molecular target: T1, CAL PDZ domain (CALP); test: fluorescence polarization; reference: iCAL42 with the CAL PDZ domain
[5] = molecular target: T2, Tax-interacting protein-1 (TIP-1), recombinant, tag cleaved (UniProt O14907 1-124); test: FP displacement assay
T2 construct: Used for FP and crystallization; also called TIP-1 PDZ domain
T2 sequence (looked up): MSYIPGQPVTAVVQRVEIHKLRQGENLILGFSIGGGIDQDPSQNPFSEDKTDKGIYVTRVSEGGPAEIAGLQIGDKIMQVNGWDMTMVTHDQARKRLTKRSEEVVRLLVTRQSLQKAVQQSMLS
Experimental: (§1) For TIP-1 peptide array experiments, His₁₀ tagged (uncleaved) protein was used to facilitate quantitation.
In order to quantitate the impact of the P⁻⁵ Leu substitution and to assess inhibitory potential at high peptide concentrations, FP displacement assays were performed.

[6] = molecular target: T3, His10 tagged (uncleaved) TIP-1 (UniProt O14907 1-124); test: CombLib peptide array
T3 construct: also called TIP-1 (peptide array experiments); not shown: N-terminal His10 tag
T3 sequence: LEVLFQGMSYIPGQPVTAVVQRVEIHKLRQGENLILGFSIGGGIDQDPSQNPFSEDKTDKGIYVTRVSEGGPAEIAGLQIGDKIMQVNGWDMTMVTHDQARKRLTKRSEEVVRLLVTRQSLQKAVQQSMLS
Source text: as §1

[7] = molecular target: T1, CAL PDZ domain (CALP); test: calculated from Ki values (FP); reference: the same peptide with the highest affinity alternative among the NHERF and TIP-1 PDZ domains
[8] = molecular target: T1, CAL PDZ domain (CALP); test: fluorescence polarization competition with a labeled peptide
Experimental: (§2) The experimental inhibitory constants of top- and poorly-ranked peptide sequences from the K* CAL-CFTR design were experimentally determined. […] The corresponding N-terminally acetylated peptides were purchased from NEO Bio-Science (Cambridge, Mass.) and the Kᵢ values for the peptides were detected using fluorescence polarization. Briefly, the CAL PDZ domain was incubated with a labeled peptide of known binding affinity. Each peptide inhibitor was serially diluted and the protein-peptide mixture was added to each dilution. Finally, the amount of competitive inhibition was tracked using residual fluorescence polarization.
(§3) The Kᵢ value for each peptide hexamer was determined using fluorescence polarization.

[9] = molecular target: T1, CAL PDZ domain (CALP); test: fluorescence polarization competition; reference: iCAL35 with CAL
Experimental: as §2, §3

[10] = molecular target: T1, CAL PDZ domain (CALP); test: fluorescence polarization competition; reference: wild-type CFTR sequence with CAL
Experimental: as §2, §3

[11] = molecular target: T1, CAL PDZ domain (CALP); test: FP competition assay
[12] = molecular target: T2, Tax-interacting protein-1 (TIP-1), …; test: FP displacement assay, reporter F*-iCAL36
[13] = molecular target: T1, CAL PDZ domain (CALP); test: calculated from Ki values (FP); reference: the same peptide with N2P2

- ΔΔG [1]: 1 kcal/mol
- ΔΔG [2]: -3.3 kcal/mol
Binder: ANSRWPTSII (also called PRC 36; iCa136) [iCAL36]

- Ki [3]: 14.8 µM
B1: iCAL35 (peptide)
peptide: Ac-WQTSII
notes: the corresponding N-terminally acetylated peptides were bought; also called WQTSII; best known peptide hexamer

- fold enhancement in CAL affinity [4]: 5 fold
B2: F*-iCAL42 (peptide)
peptide: {Fluorescein-Ahx}-ANSRLPTSII
notes: also called N-terminally fluoresceinated version of iCAL42

- binding result [5]: no binding
Binder: ANSRAPTSII [P^-5 alanine mutant of iCAL36 (ANSRAPTSII)]

- binding result [6]: no binding
- ΔΔG [7]: -2.5 kcal/mol
Binder: ANSRLPTSII (also called unlabeled iCAL42) [iCAL42]
- binding result [5]: no binding (tested: up to millimolar peptide concentrations)

- Ki [8]: 2.1 µM
- fold improvement over iCAL35 [9]: 7 fold
- fold higher affinity [10]: 331 fold
Binder: Ac-WQVTRV (also called WQVTRV) [kCAL01]

- Ki [11]: 9.2 µM
B3: BT-iCAL42 (peptide)
peptide: Biotin-W[dR]FKKANSRLPTSII
notes: also called biotinylated analog of iCAL42

- Ki [12]: 130 µM
- ΔΔGCAL-best [13]: 0.1 kcal/mol
Binder: ANGLMQTSKL [somatostatin receptor subtype 5 (SSR5) C-terminal peptide]
